Test results as given in IntAct's records for PubMed 17498700.

B1: Type-1 angiotensin II receptor (Homo sapiens), P30556 (parent)
chain: MILNSSTEDGIKRIQDDCPKAGRHNYIFVMIPTLYSIIFVVGIFGNSLVVIVIYFYMKLKTVASVFLLNLALADLCFLLTLPLWAVYTAMEYRWPFGNYLCKIASASVSFNLYASVFLLTCLSIDRYLAIVHPMKSRLRRTMLVAKVTCIIIWLLAGLASLPAIIHRNVFFIENTNITVCAFHYESQNSTLPIGLGLTKNILGFLFPFLIILTSYTLIWKALKKAYEIQKNKPRNDDIFKIIMAIVLFFFFSWIPHQIFTFLDVLIQLGIIRDCRIADIVDTAMPITICIAYFNNCLNPLFYGFLGKKFKRYFLQLLKYIPPKAKSHSNLSTKMSTLSYRPSDNVSSSTKKPAPCFEVE

Variants of: B1
Conditions: with arrb1_human ARRB1, P49407
Chain of arrb1_human ARRB1, P49407 (P49407 whole entry): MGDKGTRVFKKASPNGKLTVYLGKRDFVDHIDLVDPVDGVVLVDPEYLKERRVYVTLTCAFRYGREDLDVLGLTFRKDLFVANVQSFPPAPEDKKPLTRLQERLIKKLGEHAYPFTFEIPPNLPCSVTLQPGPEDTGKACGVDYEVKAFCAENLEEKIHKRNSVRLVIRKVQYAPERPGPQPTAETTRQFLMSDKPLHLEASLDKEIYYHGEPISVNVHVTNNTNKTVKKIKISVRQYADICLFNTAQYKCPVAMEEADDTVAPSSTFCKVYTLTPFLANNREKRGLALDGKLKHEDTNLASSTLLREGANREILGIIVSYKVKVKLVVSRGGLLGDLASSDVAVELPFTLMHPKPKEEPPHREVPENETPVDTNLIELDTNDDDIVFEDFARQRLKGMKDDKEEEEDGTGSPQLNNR

Row | Variant | effect of a mutation on the interaction
1 | N111G | decreasing interaction

Variants of: B1
Conditions: with gnaq_human GNAQ

Row | Variant | effect of a mutation on the interaction
2 | N111G | increasing interaction
